One molecule from patent US20190040132A1 (FRED HUTCHINSON CANCER RESEARCH CENTER, published 2019) can be followed below.

The assay concerns the target T1, human ROR2 (human, UniProt Q01974 34-943).
T1 construct: also called K562 expressing human ROR2
As to the kind of experiment: IHC on FFPE K562 cells transduced with human ROR2.

T1 sequence (Q01974 34-943 limits assumed): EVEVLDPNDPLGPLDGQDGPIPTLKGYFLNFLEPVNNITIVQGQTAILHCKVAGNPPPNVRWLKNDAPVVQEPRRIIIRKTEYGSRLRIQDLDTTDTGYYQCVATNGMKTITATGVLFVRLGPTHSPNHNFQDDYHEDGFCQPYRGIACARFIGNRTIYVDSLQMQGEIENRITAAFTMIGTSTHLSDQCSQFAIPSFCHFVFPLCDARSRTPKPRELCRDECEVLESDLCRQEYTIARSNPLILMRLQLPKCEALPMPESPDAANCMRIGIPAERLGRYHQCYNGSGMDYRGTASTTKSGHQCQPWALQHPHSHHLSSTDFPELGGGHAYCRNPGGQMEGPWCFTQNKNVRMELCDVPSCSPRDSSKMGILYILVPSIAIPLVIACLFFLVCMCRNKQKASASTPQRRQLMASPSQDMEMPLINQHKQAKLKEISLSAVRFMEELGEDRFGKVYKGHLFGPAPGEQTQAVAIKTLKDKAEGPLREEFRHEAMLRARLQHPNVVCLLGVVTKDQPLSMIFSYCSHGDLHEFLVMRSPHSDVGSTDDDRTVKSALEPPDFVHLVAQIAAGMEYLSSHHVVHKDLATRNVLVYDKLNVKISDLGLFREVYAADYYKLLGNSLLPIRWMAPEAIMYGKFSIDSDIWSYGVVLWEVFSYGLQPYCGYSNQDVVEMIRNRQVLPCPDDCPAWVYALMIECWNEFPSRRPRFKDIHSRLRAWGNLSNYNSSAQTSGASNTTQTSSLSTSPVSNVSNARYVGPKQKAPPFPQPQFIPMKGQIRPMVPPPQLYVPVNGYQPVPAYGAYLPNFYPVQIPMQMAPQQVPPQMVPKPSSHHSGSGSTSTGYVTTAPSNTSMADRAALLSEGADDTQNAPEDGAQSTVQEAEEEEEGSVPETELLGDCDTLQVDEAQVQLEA

B1: anti-ROR1 monoclonal antibody 6D4 (antibody, V domains shown)
VH: SGPELVKPGTSVKMSCKASGYTFTDYYMNWVKQTHGKNLEWIGRVNPSNGNTDYNQKFKGKATLTVDKSLSTAYMQLSSLTSEDSAVYYCGRLAYWGQGSLVTVSA
VL: LTQSPASLAVSPGQRATISCKASQSVDYDGETYMNWYQQKSGQPPKLLIYAASNLESGIPARFSGSGSGTDFTLNIHPVEEEDAATYYCLQTLKNPYTFGGGTKLEIK
notes: Mouse monoclonal antibody from a hybridoma, used as supernatant or purified; also called mAb 6D4; clone 6D4
Consider B1, for which the binding result is on record as “no binding”.
